Data from publication PMC4010543.

Tests used:
[1] = TEPC-15 immunoblot, whole cell lysates; conditions: control: wild-type pgl (disaccharide Ac-Gal-diNAcBac), same pilE copy number
[2] = TEPC-15 immunoblot, pilF mutant lysates; conditions: glycan gained; control: pglC pilF (no glycan)

B1: PilE: pglC null (protein)
parent chain: MNTLQKGFTLIELMIVIAIVGILAAVALPAYQDYTARAQVSEAILLAEGQKSAVTEYYLNHGKWPENNTSAGVASPPSDIKGKYVKEVEVKNGVVTATMLSSGVNNEIKGKKLSLWARRENGSVKWFCGQPVTRTDDDTVADAKDGKEIDTKHLPSTCRDNFDAK
**Q.** Which “other: phosphocholine modification of PilE” value (“other … of PilE” for short) ([1]; glycan lost) does the source give for B1 here?
**A.** increases

B2: PilE: pglE ON (trisaccharide) in 2xpilE and 3xpilE (protein)
parent chain: B1 parent chain
**Q.** With B2 as the protein, how does the “other … of PilE” value ([1]; glycan changed form) read?
**A.** decreases

B3: PilE: pglE ON pilF (trisaccharide) (protein)
parent chain: B1 parent chain
**Q.** For B3, which “other … of PilE” value [2] is on record?
**A.** no change
